According to US20210030836A1 (SHANGHAI INSTITUTE OF NUTRITION AND HEALTH CHINESE ACADEMY …, published 2021):

Target: T1, ATM, phosphorylated (activated) (human, UniProt Q13315 2-3056, phosphorylated (activated state; site not given))
T1 construct: Endogenous protein co-immunoprecipitated from PSC27 cell lysates; also called p-ATM
Assay: IP with p-TAK1 antibody from lysates of bleomycin-treated PSC27 cells, Western blot (FIG. 2)

T1 sequence (Q13315 2-3056 limits assumed): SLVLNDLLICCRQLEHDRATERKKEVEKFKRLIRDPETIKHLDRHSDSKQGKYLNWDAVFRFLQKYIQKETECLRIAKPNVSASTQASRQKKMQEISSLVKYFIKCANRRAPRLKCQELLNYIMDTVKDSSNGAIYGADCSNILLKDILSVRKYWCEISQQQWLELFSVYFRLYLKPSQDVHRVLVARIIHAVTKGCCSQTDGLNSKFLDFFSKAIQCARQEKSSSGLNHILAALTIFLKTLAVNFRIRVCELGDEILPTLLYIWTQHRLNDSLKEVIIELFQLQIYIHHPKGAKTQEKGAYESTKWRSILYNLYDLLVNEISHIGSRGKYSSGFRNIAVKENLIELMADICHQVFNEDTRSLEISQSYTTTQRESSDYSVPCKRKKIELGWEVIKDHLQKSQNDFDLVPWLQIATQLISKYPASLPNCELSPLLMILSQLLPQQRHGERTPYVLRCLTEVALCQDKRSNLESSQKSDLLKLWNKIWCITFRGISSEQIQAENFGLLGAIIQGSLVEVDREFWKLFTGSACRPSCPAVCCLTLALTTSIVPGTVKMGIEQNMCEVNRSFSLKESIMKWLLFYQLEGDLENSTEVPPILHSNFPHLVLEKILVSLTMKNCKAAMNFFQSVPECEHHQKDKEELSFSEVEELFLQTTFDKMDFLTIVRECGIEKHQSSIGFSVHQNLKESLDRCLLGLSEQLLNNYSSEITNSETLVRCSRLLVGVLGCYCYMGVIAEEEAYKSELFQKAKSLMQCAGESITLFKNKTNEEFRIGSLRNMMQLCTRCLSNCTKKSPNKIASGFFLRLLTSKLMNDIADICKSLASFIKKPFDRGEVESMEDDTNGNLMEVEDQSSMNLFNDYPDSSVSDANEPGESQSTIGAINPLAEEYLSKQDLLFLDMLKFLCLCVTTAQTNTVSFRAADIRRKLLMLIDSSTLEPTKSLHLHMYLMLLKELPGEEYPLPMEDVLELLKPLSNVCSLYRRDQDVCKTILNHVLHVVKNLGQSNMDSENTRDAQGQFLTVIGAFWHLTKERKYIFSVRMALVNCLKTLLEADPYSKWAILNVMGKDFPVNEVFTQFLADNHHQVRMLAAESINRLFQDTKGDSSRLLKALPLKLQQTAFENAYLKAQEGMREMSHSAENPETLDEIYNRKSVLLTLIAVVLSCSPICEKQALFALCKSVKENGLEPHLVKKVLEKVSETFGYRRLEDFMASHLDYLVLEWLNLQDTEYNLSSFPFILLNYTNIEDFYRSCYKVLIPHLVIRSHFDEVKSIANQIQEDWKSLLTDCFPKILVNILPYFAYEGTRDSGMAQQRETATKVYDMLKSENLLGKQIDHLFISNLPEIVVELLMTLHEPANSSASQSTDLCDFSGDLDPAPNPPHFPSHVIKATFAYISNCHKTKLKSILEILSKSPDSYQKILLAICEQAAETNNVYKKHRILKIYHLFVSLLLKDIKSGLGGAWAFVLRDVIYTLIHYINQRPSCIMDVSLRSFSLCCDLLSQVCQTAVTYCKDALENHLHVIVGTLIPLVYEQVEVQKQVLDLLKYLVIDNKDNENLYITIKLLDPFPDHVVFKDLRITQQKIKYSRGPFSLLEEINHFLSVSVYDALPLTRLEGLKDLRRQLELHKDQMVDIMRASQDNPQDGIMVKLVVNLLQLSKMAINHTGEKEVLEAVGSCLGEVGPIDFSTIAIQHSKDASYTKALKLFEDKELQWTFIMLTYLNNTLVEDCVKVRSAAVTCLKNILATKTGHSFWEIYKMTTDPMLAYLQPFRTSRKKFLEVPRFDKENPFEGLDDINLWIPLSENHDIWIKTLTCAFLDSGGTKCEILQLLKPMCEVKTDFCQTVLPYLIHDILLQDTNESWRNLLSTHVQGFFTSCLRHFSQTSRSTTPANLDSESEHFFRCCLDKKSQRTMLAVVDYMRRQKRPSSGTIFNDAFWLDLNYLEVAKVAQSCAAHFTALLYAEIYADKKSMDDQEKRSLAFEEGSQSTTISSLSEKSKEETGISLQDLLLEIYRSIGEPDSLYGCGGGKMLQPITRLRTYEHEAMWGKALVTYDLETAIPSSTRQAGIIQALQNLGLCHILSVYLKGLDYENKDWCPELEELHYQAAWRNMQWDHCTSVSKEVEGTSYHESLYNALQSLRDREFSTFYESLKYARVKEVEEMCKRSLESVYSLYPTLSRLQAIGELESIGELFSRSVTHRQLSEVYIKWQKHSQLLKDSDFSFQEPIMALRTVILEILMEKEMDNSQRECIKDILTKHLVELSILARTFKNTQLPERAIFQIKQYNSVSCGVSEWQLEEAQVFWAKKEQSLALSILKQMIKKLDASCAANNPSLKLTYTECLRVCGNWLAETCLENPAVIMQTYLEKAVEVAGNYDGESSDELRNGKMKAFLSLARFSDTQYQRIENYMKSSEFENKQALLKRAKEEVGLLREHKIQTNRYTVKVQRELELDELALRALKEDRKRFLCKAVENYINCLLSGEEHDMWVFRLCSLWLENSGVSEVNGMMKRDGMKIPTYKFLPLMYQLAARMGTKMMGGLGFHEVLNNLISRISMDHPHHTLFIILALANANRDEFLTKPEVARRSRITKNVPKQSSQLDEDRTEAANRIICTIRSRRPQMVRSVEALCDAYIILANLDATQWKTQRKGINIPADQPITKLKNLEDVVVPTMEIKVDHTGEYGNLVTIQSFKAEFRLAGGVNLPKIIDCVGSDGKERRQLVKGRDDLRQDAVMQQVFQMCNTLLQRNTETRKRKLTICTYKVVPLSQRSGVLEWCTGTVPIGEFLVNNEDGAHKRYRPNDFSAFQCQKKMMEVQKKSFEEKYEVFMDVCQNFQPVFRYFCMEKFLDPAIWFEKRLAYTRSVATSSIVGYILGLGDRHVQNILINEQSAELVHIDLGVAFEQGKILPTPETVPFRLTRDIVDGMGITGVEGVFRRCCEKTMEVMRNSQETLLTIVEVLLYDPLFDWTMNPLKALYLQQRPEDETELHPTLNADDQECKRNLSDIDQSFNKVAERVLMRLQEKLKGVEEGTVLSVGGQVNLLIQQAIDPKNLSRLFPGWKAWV

- binding result: no binding
B1: Transforming growth factor kinase 1 (TAK1), phosphorylated (activated) (enzyme, human, UniProt O43318 1-606, looked up)
chain: MSTASAASSSSSSSAGEMIEAPSQVLNFEEIDYKEIEVEEVVGRGAFGVVCKAKWRAKDVAIKQIESESERKAFIVELRQLSRVNHPNIVKLYGACLNPVCLVMEYAEGGSLYNVLHGAEPLPYYTAAHAMSWCLQCSQGVAYLHSMQPKALIHRDLKPPNLLLVAGGTVLKICDFGTACDIQTHMTNNKGSAAWMAPEVFEGSNYSEKCDVFSWGIILWEVITRRKPFDEIGGPAFRIMWAVHNGTRPPLIKNLPKPIESLMTRCWSKDPSQRPSMEEIVKIMTHLMRYFPGADEPLQYPCQYSDEGQSNSATSTGSFMDIASTNTSNKSDTNMEQVPATNDTIKRLESKLLKNQAKQQSESGRLSLGASRGSSVESLPPTSEGKRMSADMSEIEARIAATTAYSKPKRGHRKTASFGNILDVPEIVISGNGQPRRRSIQDLTVTGTEPGQVSSRSSSPSVRMITTSGPTSEKPTRSHPWTPDDSTDTNGSDNSIPMAYLTLDHQLQPLAPCPNSKESMAVFEQHCKMAQEYMKVQTEIALLLQRKQELVAELDQDEKDQQNTSRLVQEHKKLLDENKSLSTYYQQCKKQLEVIRSQQQKRQGTS
modifications: phosphorylated (activated state; site not given)
notes: Endogenous protein immunoprecipitated with a p-TAK1 antibody from PSC27 cell lysates; also called p-TAK1
